Values belong to the substance of their own block, whether it stands above or below them.
Tests used:
[1] = molecular target: full-length recombinant human tissue factor (human) (UniProt P13726); experiment: SPR, full-length TF captured by TF9-10H10, VIIa premixed with 10 µM 5L15
factor X = factor X (UniProt P00742); experiment: cell-based or functional assay
VIIaGln298 (human) = VIIaGln298 (human) (UniProt P08709); experiment: cell-based or functional assay
[2] = molecular target: VIIaGln298 in complex with TF1-218 (human) (UniProt P08709); experiment: cell-based or functional assay
[3] = molecular target: wild-type VIIa in complex with TF1-218 (human) (UniProt P08709); experiment: cell-based or functional assay

Chain of UniProt P00742 (P00742 41-488 limits assumed): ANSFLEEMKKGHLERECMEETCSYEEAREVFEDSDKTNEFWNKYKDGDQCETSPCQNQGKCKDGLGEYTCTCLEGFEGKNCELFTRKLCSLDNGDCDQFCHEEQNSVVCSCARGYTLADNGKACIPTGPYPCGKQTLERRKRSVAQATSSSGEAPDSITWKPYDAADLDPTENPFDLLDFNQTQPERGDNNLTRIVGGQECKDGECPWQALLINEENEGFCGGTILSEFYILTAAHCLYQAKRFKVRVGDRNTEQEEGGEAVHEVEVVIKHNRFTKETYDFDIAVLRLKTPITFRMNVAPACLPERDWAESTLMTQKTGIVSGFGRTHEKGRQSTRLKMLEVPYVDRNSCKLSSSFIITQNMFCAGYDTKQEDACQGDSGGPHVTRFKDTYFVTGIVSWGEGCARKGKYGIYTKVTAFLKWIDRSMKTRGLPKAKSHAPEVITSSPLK

Kd [1]: 0.8 nM
Substance: wild-type VIIa premixed with 10 µM 5L15 (from UniProt P08709 61-212; P08709 213-466)

KM (nM) of factor X activation by VIIa bound to phospholipid reconstituted T.F. (factor X): 61 nM
Substance: wild-type VIIa bound to phospholipid reconstituted T.F. (from UniProt P08709 61-212; P08709 213-466; P13726 33-295)

KM (nM) of factor X activation by VIIa bound to phospholipid reconstituted T.F. (factor X): 68 nM
Substance: VIIaGln298 bound to phospholipid reconstituted T.F. (from UniProt P08709 61-212; P08709 213-466; P13726 33-295)

time to 50% inhibition of amidolytic activity of free VIIa by 0.5 µM antithrombin III with 5 U/ml heparin (VIIaGln298 (human)): 31 min
time to 50% inhibition of amidolytic activity of T.F.-VIIa complex by 0.5 µM antithrombin III with 5 U/ml heparin [2]: 4.5 min
time to 50% inhibition of amidolytic activity of T.F.-VIIa complex by 0.5 µM antithrombin III with 5 U/ml heparin [3]: 6 min
Substance: antithrombin III (from UniProt P01008 33-464)

Source: US20040033566A1
